The nature of data set [1]: Plasma concentration of 3H-labeled complexes in tumor-bearing rats (AUC). Format: in vivo, female Wistar rats. The note with it: 10 mg/Kg; for AUCo-oo in Plasma: carotids; for increase of retention in blood compared with the referential complexes (AUC): ratio to referential complexes. As to the method: Thus, the complexes which were obtained as the final products of Examples 17, 18 and 19 above and had the polyethylene glycol (PEG) contents of 6%, 21% and 43%, respectively, and of which the MTX portions were labelled with ^3 H, were prepared and employed as the ^3 H-labeled test compounds for use as Test Samples 1, 2 and 3. Further, the complexes same as those above-mentioned complexes except that the PEG portion was eliminated therefrom and the MTX portion was ^3 H-labeled, were also prepared and used as referential ^3 H-labeled compounds. In each of the complexes used as Test Samples 1, 2 and 3 and the complexes used as the referential complexes, the peptide chain which was bonded to the 2-amino group of the carboxymethylglucosamine unit of these tested complexes was Gly-Phe-Phe. The PEG portion present in the complexes as Test Samples 1, 2 and 3 was the PEG1 (molecular weight: 5,000) as described in Example 17.
In the following experiment, there were employed such tumor-bearing female Wistar rats which had received the subcutaneous transplantation of cancer cells, Walker 256, to an inguinal part and subsequently had been raised for 6 days. Each solution of the test sample was prepared for administration, by suitably diluting the ^3 H-labeled test sample complex with a solution of a corresponding non-radioactively labeled complex in physiological saline. Using three rats per group, the solution of the test sample was administered into the carotids of rats at a dose of 10 mg/Kg of the complex.
Under ether anesthesia, blood was sampled from the carotid of rats periodically at the ends of 30 minutes, 1 hour, 2 hours, 4 hours and 6 hours after the administration, and the blood was centrifuged to separate the plasma. Upon elapsed time of 24 hours after the administration, blood was collected from rats under ether enesthesia until the rats were sacrificed under exsanguination. Several tissues and organs were separated from the sacrificed rats. After weighing the whole or some parts of the tissues and organs, their radioactivities were measured.
The radioactivity of the tissues separated was measured in the following manner. After each sample of tissue was collected in a combustion cone and was dried, the sample was combusted in an automatic sample-combusting apparatus ("ASC-113", ALOKA). The resulting ^3 H2 O was added to a scintillator ("AQUASOL-2", NEN) and then measured by liquid scintillation counter ("LSC-3600", ALOKA). The value of radioactivity so measured was calibrated by the external standard radiation source method.
The test results are presented in FIG. 29 and FIG. 30 of the accompanying drawings as well as in Table 1 given hereinafter. FIG. 29 is a graph showing time-dependent variations in the concentration of each sample complex present in the plasma as measured up to the end of 24 hours after the administration of the complex. FIG. 30 is a graph showing the distributions of each sample complex present in tissues of the rat body which are expressed as the concentration of the complex in term of the percentages on the basis of the dose of the complex.

For the next data set, the system named is Walker 256. Description: Concentration of 3H-labeled complexes in tumor (Walker 256) of rats. It counts as in vivo, female Wistar rats. The note with it: 10 mg/Kg, carotids, 1440 min.
A short description of data set [2]: Serum concentration of 3H-labeled compound after i.v. administration in tumor-bearing mice. Format: in vivo, male ICR mice. The note with it: 20 mg/Kg, caudal vein, 15 minutes to 24 hours, FIG. 18. The source says: (§1) The N-acetylcarboxymethylchitosan--Gly-Gly-Gly--MTX complex of Example 2, in which the MTX portion had been ^3 H-labeled, was used as a test sample compound. In addition, an ^3 H-labeled product of the partially N-acetylated carboxymethylchitosan as obtained in the course of the process of Example 1 was employed as a referential sample.
(§2) In the following experiment, there were employed tumor-bearing male ICR mice which had received subcutaneous implantation of Sarcoma 180 and subsequently had been raised for 10 days. The test sample compound was dissolved in physiological saline. Using three mice per group, the solution of the test sample compound was administered at a dose of 20 mg/Kg through the caudal vein. At the ends of 15 minutes, 30 minutes, 1 hour, 2 hours, 6 hours and 24 hours after the administration, the femoral artery and femoral vein of the mice of the respective groups were cut to collect blood samples. The radioactivity of a serum sample, which had been obtained by centrifuging each of the blood samples, and the radioactivity of a cancer tissue taken from the corresponding mouse were measured by the combustion method. In this way, the concentrations of the test sample compound present in the serum and the cancer tissue were evaluated.
(§3) The test results are plotted in FIGS. 18 and 19 of the accompanying drawings. […]

In a further data set the test system is Sarcoma 180. In words: Concentration of 3H-labeled compound in cancer tissue (Sarcoma 180) of mice. Format: in vivo, male ICR mice. The note with it: 20 mg/Kg, caudal vein, up to 24 hours, FIG. 19.
Description: as §1, §2, §3

Description for Walker 256: The radioactivity of the tissues separated was measured in the following manner. […] The resulting ^3 H2 O was added to a scintillator ("AQUASOL-2", NEN) and then measured by liquid scintillation counter ("LSC-3600", ALOKA). The value of radioactivity so measured was calibrated by the external standard radiation source method.

For “N-acetylcarboxymethylchitosan-(PEG1)--Gly-Phe-Phe--MTX [Test Sample 1]”, in data set [1], the “AUCo-oo in Plasma” value was 20.85 % of dose · hr/ml and the “increase of retention in blood compared with the referential complexes (AUC)” value (from here on “increase of retention in blood”) is listed as “about 1.3 times”. Moreover, the “Concentration of Sample in Tumor at end of 24 hrs” value (shortened to “Concentration of Sample in Tumor”) with Walker 256 was 0.22 % of dose/g.
Regarding “N-acetylcarboxymethylchitosan-(PEG1)--Gly-Phe-Phe--MTX [Test Sample 2]”, in data set [1], the “AUCo-oo in Plasma” value is 46.20 % of dose · hr/ml and the “increase of retention in blood” value was “about 3 times”. Further, the “Concentration of Sample in Tumor” value with Walker 256 is given as 0.35 % of dose/g.
Regarding “N-acetylcarboxymethylchitosan-(PEG1)--Gly-Phe-Phe--MTX [Test Sample 3]”, in data set [1], the “AUCo-oo in Plasma” value is 45.52 % of dose · hr/ml and the “increase of retention in blood” value is “about 3 times”. Also, the “Concentration of Sample in Tumor” value in the data set with Walker 256 is given as 0.44 % of dose/g.
With “N-acetylcarboxymethylchitosan--Gly-Gly-Gly--MTX [Example 2]”, the “retention in blood versus simple polysaccharide referential sample” value in data set [2] was “comparable to or longer than the retention of the simple polysaccharide”. Besides, the “concentration in cancer tissue versus simple polysaccharide” value in the data set with Sarcoma 180 is on record as “can concentrate in a cancer tissue”.

The values above are taken from US5463022A, “N-acetylcarboxymethylchitosan derivatives and process for preparation thereof” (priority 1990, dated 1995).
